Test results published in publication PMC9649601, “The E262K mutation in Lamin A links nuclear proteostasis imbalance to laminopathy‐associated premature aging” (Aging Cell, 2022).
Where a chain is given by its changes, count along the chain named. Names and notes keep the numbering of the source.

B1: second rod domain of lamin A E262K (LMNA^E262K-rod2, residues 226-387) (domain or fragment, human, UniProt P02545 226-387, looked up)
chain: LVEIDNGKQREFESRLADALQELRAQHEDQVEQYKKKLEKTYSAKLDNARQSAERNSNLVGAAHEELQQSRIRIDSLSAQLSQLQKQLAAKEAKLRDLEDSLARERDTSRRLLAEKEREMAEMRARMQQQLDEYQELLDIKLALDMEIHAYRKLLEGEEERL
notes: lamin A (LMNA), human, second rod domain, residues 226-387, with the patient's variant p.Glu262Lys; source: bacterially expressed recombinant, purified
B2: second rod domain of lamin A (LMNA-rod2, residues 226-387) (domain or fragment, human, UniProt P02545 226-387, looked up)
chain: B1 chain with K37E
notes: lamin A (LMNA), human, second rod domain, residues 226-387; source: bacterially expressed recombinant, purified

Target: the molecule itself
Assay: dynamic light scattering + other: atomic force microscopy; purified proteins at 0.1 and 10 uM in aqueous environment; ex situ AFM at 10 uM; self-association (oligomers or aggregates)

Protein	binding result
B1	binds
B2	binds
